The target of data set [1] is Annexin A2 CTD (AnxA2) (Homo sapiens) (UniProt P07355). Kind of data set: fluorescence anisotropy. The note with it: 20 mM HEPES pH 7.0, 100 mM NaCl, 1 mM DTT, with 1 mM CaCl2, MgCl2 or EGTA, 50 nM labelled oligo, 0-120 uM protein, temperature not stated. Background: In fluorescence polarisation assays a small probe gives low polarisation when free and higher when bound to something large.

Data set [2] concerns the target AnxA2 mutant #3 K115A;K119A;R205A;K206A (Homo sapiens) (UniProt P07355). Kind of data set: fluorescence anisotropy. The note with it: full PS DNA; no 2' modification; 20 mM HEPES pH 7.0, 100 mM NaCl, 1 mM DTT, with 1 mM CaCl2, MgCl2 or EGTA; 50 nM labelled oligo, 0-120 uM protein; temperature not stated.

As a reminder, the Kd is the free concentration of one partner at which half of the binding sites on the other are occupied at equilibrium, for simple one-to-one binding.

Sequence of Annexin A2 CTD (AnxA2) (Homo sapiens) (P07355 34-339): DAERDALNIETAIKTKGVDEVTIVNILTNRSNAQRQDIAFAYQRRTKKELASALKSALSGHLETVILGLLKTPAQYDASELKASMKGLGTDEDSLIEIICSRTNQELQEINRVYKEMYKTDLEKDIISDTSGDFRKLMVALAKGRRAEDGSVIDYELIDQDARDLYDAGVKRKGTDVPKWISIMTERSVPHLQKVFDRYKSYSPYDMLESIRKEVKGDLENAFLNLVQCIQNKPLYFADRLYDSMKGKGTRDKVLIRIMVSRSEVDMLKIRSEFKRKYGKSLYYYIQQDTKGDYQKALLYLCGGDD
Sequence of AnxA2 mutant #3 K115A;K119A;R205A;K206A (Homo sapiens) (P07355 34-339 K115A/K119A/R205A/K206A): as the sequence (P07355 34-339) above, with K82A, K86A, R172A, K173A counted along it

Turning to “GCCAGGCTGGTTATG [5-10 MALAT PS, labelled]”, the equilibrium dissociation constant (Kd) in data set [1] (full PS, 5 nt 2'-MOE 5' wing + 10 nt DNA, 5-methyl-C) was found to be 9.3 µM.

As to “GCCAGGCTGGTTATGACTCA [5-10-5 MALAT PS, labelled]”, the dissociation constant Kd in data set [1] (full PS, 5-10-5 2'-MOE gapmer, 5-methyl-C) is 6.3 µM. For “CTGCTAGCCTCTGGATTTGA [PTEN PS, labelled]”, the binding signal (fold weaker than wild type) in data set [2] came out at 7. The same sequence showed a Kd in data set [1] (full PS DNA, no 2' modification) of 5 µM. With “TTTTTTTTTTTTTTTTTTTG [T19G PS, labelled]”, in data set [1] (full PS DNA), the dissociation constant (Kd) stood at 8.2 µM.

Values taken from publication PMC9943651.
